The labels stand for the following.
B1: ADI-49044 (antibody, V domains shown)
VH: QVQLVESGGGVVQPGRSLRLSCAASGFAFSSYGMHWVRQAPGKGLEWVAGMRFDGTKIYYADSVKGRFTISRDNSKNTLYLQMNSLRAEDTAVYFCARDLEVGAEYIYYYYGMDVWGQGTTVTVSS
VL: QPVLTQPPSASGTPGQRVTISCSGSSSNIGTNTVSWYQQLPGTAPQLLVFSRTQRPSGVPDRFSGSKSGTSASLAISGLQSDDEADYYCAAWDDSRNGWVFGGGTKLTVL
notes: full-length IgG; also called Antibody Number 8
B2: ADI-45148 (antibody, V domains shown)
VH: EVQLLESGGGLVQPGRSLRLSCAASGFTFDDYAMHWVRQAPGKGLEWVSGISWNSGSIGYADSVKGRFTISRDNAKNSLYLQMNSLRAEDTALYYCAKDIGDSYGSGSYYLPYGAYYGMDVWGQGTTVTVSS
VL: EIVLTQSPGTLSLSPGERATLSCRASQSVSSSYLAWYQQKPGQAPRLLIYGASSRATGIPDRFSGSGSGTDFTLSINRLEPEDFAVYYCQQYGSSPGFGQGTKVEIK
notes: full-length IgG; also called Antibody Number 72
B3: ADI-49145 (antibody, V domains shown)
VH: EVQLLESGGGLVQPGGSLRLSCAASGFIFSDYYMDWVRQTPGKGPEWVGRITNRPNSYTTEYAASVKGRFTISRDDSTNSLFLHMNSLKTEDTAVYYCTRITGDRYWYLDLWGRGTLVTVSS
VL: DIVLTQSPSSLSASVGDRVTITCRASQSINNYLNWYQQKPGKAPNLLIFGASTLQSGVPSRFTGSGSGTVFTLTISSLQRDDFVIYYCQQTYSASGSFGQGTKVEIK
notes: full-length IgG; also called Antibody Number 69
B4: ADI-45164 (antibody, V domains shown)
VH: EVQLQESGPGLVKPSETLSLTCTVSGGSISSSSYYWGWIRQPPGKGLEWIGSIYYSGSTYYNPSLKSRVTISVDTSKNQFSLKLSSVTAADTAVYYCARGYCSSTSCFYYYYGMDVWGQGTTVTVSS
VL: not shown
notes: full-length IgG; also called Antibody Number 65
B5: ADI-49168 (antibody, V domains shown)
VH: EVQLLESGGGLVQPGGSLRLSCAASGFTFSSYAMSWVRQATGRGLEWVSSIRSSGGRTEYADSVKGRFTISRDNSKNTLYLQMDSLRAEDTALYYCAKHYDSSGYYYEDYWGQGTLVTVSS
VL: DIVLTQSPSTLSASVGDRVTITCRASQSISDWLAWYQQKPGKAPGLLIYRASGLESGVPSRFSGSGSGTEFTLTISSLQPDDFATYYCHQYKDFPWTFGQGTKVDIK
notes: full-length IgG; also called Antibody Number 73
B6: ADI-46722 (antibody, V domains shown)
VH: EVQLVESGPGLVKPSGTLSLTCAVSGGSISSSNWWSWVRQPPGKGLEWIGEIYHSESTNYNPSLKSRVTISVDKSKNQFSLKLSSVTAADTAVYYCARDFWSGSNWFDPWGQGTLVTVSS
VL: QSALIQPPSVSAAPGQKVTISCSGSSSNIGNNYVSWYQQLPGTAPKLLIYDNNKRPSGIPDRFSGSKSGTSATLGITGLQTGDEADYYCGTWDNSLGVVFGGGTQLTVL
notes: full-length IgG; also called Antibody Number 71
B7: ADI-49561 (antibody, V domains shown)
VH: EVQLLESGGGVVQPGRSLRLSCVASGFTFSSYGMHWVRQAPGKGLEWVALISYDGSNKYYADSVKGRFTISRDNSKNTLYLQMNSLRAEDTAVYYCAKDQCGGDCTADYWGQGTLVTVSS
VL: QSVLTQPASVSGSPGQSITISCTGTSSDVGGDKYVSWYQQHPGKAPKPMIYEVSNRPSGVSNRFSGSKSGNTASLTISGLQAEDEADYYCSSYTSSSTPVVFGGGTKLTVL
notes: full-length IgG; also called Antibody Number 76
B8: ADI-46729 (antibody, V domains shown)
VH: EVQLVESGPGLVKPSQTLSLTCTVSGGSISSGSYYWSWIRQPAGKGLEWIGRIYTSGSTNYNPSLKSRVTMSVDTSKNQFSLKLSSVTAADTAVYYCARGWFGYSNYGLYYYYGMDVWGQGTTVTVSS
VL: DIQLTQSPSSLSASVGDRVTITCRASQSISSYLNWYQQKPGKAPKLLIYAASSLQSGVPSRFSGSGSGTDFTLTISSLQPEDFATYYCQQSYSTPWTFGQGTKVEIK
notes: full-length IgG; also called Antibody Number 70
B9: ADI-50535 (antibody, V domains shown)
VH: QVQLVQSGAEVKKPGASVKVSCKASGYTFTSYGISWVRQAPGQGLEWMGWISAYNGNTNYAQKLQGRVTMTTDTSTSTAYMELRSLRSDDTAVYYCARRPYYYGSRRPAGHMDVWGQGTTVTVSS
VL: NFMLTQPHSVSESPGKTVTISCTRSSGSIASNYVQWYQQRPGSSPTTVIYEDNQRPSGVPDRFSGSIDSSSNSASLTISGLKTEDEADYYCQSYDSSNVVFGGGTKVTVL
notes: full-length IgG; also called Antibody Number 78
B10: ADI-42191 (antibody, V domains shown)
VH: EVQLVESGGGLVQPGGSLRLSCAASGFTFSDHYMDWVRQAPGKGLEWVGRTRNKPNSHTTEYAASVKGRFTISRDDSKNSLYLQMNSLQTEDTAVYYCARVYGGPDDYWGQGTLVTVSS
VL: EIVMTQSPSSLSASVGDRVTITCRASQSIRSYLNWYQQKPGKAPKLLIYAASSLQSGVPLRFSGSGSGTDFTLTISSLQPEDFATYYCQQSSITPPTFGQGTKLEIK
notes: full-length IgG; also called Antibody Number 67
B11: ADI-45128 (antibody, V domains shown)
VH: QVQLQESGPGLVRPSQTLSLTCTVSGGAISSGDYYWSWVRQPPGKGLEWIGYIHYSGTTYNNPSLKSRVTIAVDTSKNQFSLKLSSVTAADTAVYFCGRDSDKNYFDYWGQGTLVTVSS
VL: QSVLTQPPSVSAAPGQKVTISCSGSSSNIGNNDVSWYQQLPGRAPKLLIYDNNKRPSGIPDRFSGSKSGTSATLGITGLQTGDEADYYCGAWDSSLSAHVVFGGGTKVTVL
notes: full-length IgG; also called Antibody Number 79
B12: ADI-42219 (antibody, V domains shown)
VH: QVQLVESGGGVVQPGRSLRLSCAASGFTFSSLAMHWVRQAPGKGLEWVATISYDVSNKYYADSVKGRFTISRDNSKNTLFLQMNSLRPEDTAVYYCARGYTGYDGFDYWGQGTLVTVSS
VL: QPVLTQPRSVSGSPGQSVTISCTGTSSDVGGYNYVSWYQQHPGKAPKLMISDVSKRPSGVPDRFSGSKSGNTASLTISGLQADDEADYYCCSYATNYGVVFGGGTKVTVL
notes: full-length IgG; also called Antibody Number 77
B13: ADI-45136 (antibody, V domains shown)
VH: EVQLVESGGGVVRPGRSLRLSCAASGFTFSSYGMHWVRQAPGKGLEWVAVIRFDGSNTVYADSVKGRFTISRDNSKNTLYLQMNSLRAEDTAVYYCAKTYDSNAYYYLDYWGQGTLVTVSS
VL: DIVMTQTPSTLSASVGDRVTVTCRASQSISDWLAWYQQKAGKAPKLLIYRASSLESGVPPRFSGSGSGTEFTLTISSLRPDDFATYYCQQYNRYPYTFGQGTKVDIK
notes: full-length IgG; also called Antibody Number 80
B14: ADI-45140 (antibody, V domains shown)
VH: EVQLLESGGGLVHPGGSLRLSCAASGFTFSDYEMNWVRQAPGKGLEWVSHISSSGNIIYYADSVKGRFTISRDNAKDSLYLQMNSLRAEDTAVYYCAATIFGVVSFDYWGQGTLVTVSS
VL: QSVLTQPPSVSAAPGQKVTISCSGSSSNIGNNYVSWYQQLPGTAPKVLIYDNNKRPSGIPDRFSGSKSGTSATLGITGLQTGDEADYYCGTWDSALGAAVFGGGTKLTVL
notes: full-length IgG; also called Antibody Number 61
B15: ADI-42231 (antibody, V domains shown)
VH: QVQLVQSGAEVKKPGASVKVSCKASGYSFTTYGISWVRQAPGQGLEWMGWISGYSGDTNYAQKVQGRVTMTTDTSTSTAYMELRSLRSDDTAVYYCARDQSHGTFGGVIDSTTLFYYYGMDVWGQGTTVTVSS
VL: DIVMTQSPATLSLSPGERATLSCRASQSVSSYLAWYQQKPGQAPRLLIYDASNRATGIPARFSGSGSGTDFTLTISSLEPEDFAVYYCQQRSNWPSFGQGTKLEIK
notes: full-length IgG; also called Antibody Number 64
B16: ADI-42199 (antibody, V domains shown)
VH: EVQLVESGGGLVQPGGSLRLSCAASGFTFSDHYMAWVRQAPGKGLEWVGRIRNKPNSYTTEYAASVKGRFTISRHDSENSLYLQMNSLKTEDTAVYYCCRESGEGFDPWGQGTLVTVSS
VL: SYELTQLPSVSVSPGQTARVTCSGDALQYVYWYQQKPGQAPVVVIYKDTERPSGIPERFSGSSSGTTVTLTITGVQAEDEADYYCQSADRSGSVIFGGGTKVTVL
notes: full-length IgG; also called Antibody Number 63
B17: ADI-49040 (antibody, V domains shown)
VH: EVQLVESGGALVHPGGSLGLSCAASGFTFSDHYMDWVRQAPGKGLEWVGRIRNKPNSYATQYAASVKGRFTISRDDSKKSLYLQMNSLNTEDTAVYYCARVRDGEYDYWGQGTLVTVSS
VL: DIQMTQSPSTLSASVGDRVTITCRASQSISTWLAWYQLKPGKAPKLLIYKASNLQSGVPSRFSGSGSGTEFTLTISSLQPDDFATYYCQQYNSYSPWGQGTKLEIK
notes: full-length IgG; also called Antibody Number 74
B18: ADI-42233 (antibody, V domains shown)
VH: EVQLVESGGGLVKPGGSLRLSCVASGFTFSRYSMNWVRQAPGKGLEWVSSISHSGRYIYYADSEKGRFTISRDNAKNSLYLQMNSLRAEDTAVYYCARDHYFDSSGDYLSYYYNGMDVWGQGTTVTVSS
VL: ETTLTQSPGTLSLSPGERATLSCRASRSVSGNYLAWYQQKPGQAPRLLIYAASSRATGIPDRFSGGGSGTHFTLTISRLEPEDFAVYYCQQYGSSPRAFGQGTKVEIK
notes: full-length IgG; also called Antibody Number 66
B19: ADI-49033 (antibody, V domains shown)
VH: EVQLVESGGGLVQPGGSLRLSCAASGLIFRNYAMSWVRQAPGKGLEWVSSFSGSGGSAYYADSVKGRFTISRDNSKSTVYLQMNRLRVEDTAVYYCAKDMAVSVHRGWFDDWGQGTLVTVSS
VL: EIVMTQSPSALSASVRDRVTITCRASQSIGSDLNWYQQRPGKAPMLLIYAATGLQSGVPSRFSGSGSGTDFTLTISNLQPEDFATYYCQQSYSPPMYTFGQGTKVDIK
notes: full-length IgG; also called Antibody Number 7
B20: ADI-42187 (antibody, V domains shown)
VH: EVQLLESGGGLVKPGGSLRLSCAASGFTFSSYSMNWVRQAPGKGLEWVSSISSRSSFMYYADSVKGRFTISRDNAKNSLYLQMNSLRVEDTAVYYCARDNSEVEDYGDYVLYHYYGMDVWGQGTTVTVSS
VL: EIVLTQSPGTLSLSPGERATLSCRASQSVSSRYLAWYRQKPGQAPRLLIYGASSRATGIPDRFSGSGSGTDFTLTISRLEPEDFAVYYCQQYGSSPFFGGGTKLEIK
notes: full-length IgG; also called Antibody Number 75
B21: ADI-50211 (antibody, V domains shown)
VH: EVQLVESGGGLVQPGGSLRLSCAASGFTFSAYAMSWVRQAPGRGLEWVSAISGSDRRIYYADSVKGRFSISRDNSKNTLYLQMSSLRAEDTAVYYCAKYYDSSGYYYLDYWGQGTLVTVSS
VL: DIQLTQSPSTLSASVGDRVTITCRASQSVSSWLAWYQQKPGKAPRLLIYRASSLESGVPSRFSGSGSGTEFTLTISSLQPDDFAAYYCQQYNRDPYTFGQGTKVEIK
notes: full-length IgG; also called Antibody Number 62
B22: ADI-48899 (antibody, V domains shown)
VH: EVQLVESGGGLVQPGGSLRLSCAASGFIYTNYAMYWVRQAPGKGLEWVSAISGSGGITYYADSVKGRFTISRDNSKNTLYLQMNSLRAEDKAVYYCAKDGVTTINGWFHFEYWGQGTLVTVSS
VL: B21 VL with L4M, V29I, R45K, R50Q, G66E, A85T, R93S, D94F, Y96F, Q100P
notes: full-length IgG; also called Antibody Number 68

22 molecules from patent US20240218054A1 (MABLOC, published 2024) can be followed below.

Where a chain is given by its changes, count along the chain named.

The experiment deals with T1, recombinant YFV E protein (soluble E, sE; YFV Asibi strain) (Yellow fever virus, Asibi strain, UniProt Q6DV88 286-678).
T1 construct: also called YFV E antigen; YFV E monomer
T1 sequence (Q6DV88 286-678): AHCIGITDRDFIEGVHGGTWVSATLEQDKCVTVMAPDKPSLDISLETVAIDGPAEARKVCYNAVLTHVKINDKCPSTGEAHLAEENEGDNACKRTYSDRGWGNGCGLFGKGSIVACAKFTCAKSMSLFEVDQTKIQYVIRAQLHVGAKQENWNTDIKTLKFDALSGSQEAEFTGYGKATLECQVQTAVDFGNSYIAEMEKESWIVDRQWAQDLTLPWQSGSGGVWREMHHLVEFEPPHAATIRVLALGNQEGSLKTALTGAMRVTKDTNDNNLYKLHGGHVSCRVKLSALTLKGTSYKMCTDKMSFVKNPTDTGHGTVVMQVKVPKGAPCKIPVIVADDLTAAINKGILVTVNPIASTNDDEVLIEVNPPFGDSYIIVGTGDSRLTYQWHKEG
The experiment is described as follows: BLI monovalent (IgG on tip).
Usually Kd stands for a measure of binding affinity in units of concentration. Take B1: the Kd was 1.88 nM. As to B2, the Kd is above 100 nM.

With B3, the Kd was determined as 1.05 nM. To B4 belongs above 100 nM; to B5, 24.1 nM; to B6, above 100 nM. As for B7, the Kd is 242 nM. For the molecule B8, the dissociation constant (Kd) was above 100 nM. With B9, the Kd was above 100 nM. Consider B10, for which the equilibrium dissociation constant (Kd) worked out at 2.13 nM. As for B11, the Kd amounted to 3.54 nM. Consider B12, for which the dissociation constant (Kd) amounted to 4.05 nM. With B13 the figure was 16.8 nM.

On to B14, for which the Kd came to 4.6 nM. Take B15: the Kd was found to be 42.1 nM. On to B16, for which the dissociation constant (Kd) turned out to be 0.7 nM. Take B17: the Kd was determined as 0.999 nM. To B18 belongs 2.98 nM. As for B19, the Kd was 18 nM. Consider B20, for which the Kd came out at 4.01 nM. B21: the Kd came out at 20.8 nM. In the case of B22, the equilibrium dissociation constant (Kd) worked out at 434 nM.
